# From publication PMC9482650, “Quantitative fragmentomics allow affinity mapping of interactomes” (Nature Communications, 2022)
# T1: HTRA4, P83105
# T1 sequence (P83105 378-476, limits assumed, looked up): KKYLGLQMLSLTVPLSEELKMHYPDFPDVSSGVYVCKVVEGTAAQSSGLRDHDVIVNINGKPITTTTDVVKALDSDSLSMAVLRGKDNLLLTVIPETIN
# T2: LNX2_2, Q8N448
# T2 sequence (Q8N448 334-432, limits assumed, looked up): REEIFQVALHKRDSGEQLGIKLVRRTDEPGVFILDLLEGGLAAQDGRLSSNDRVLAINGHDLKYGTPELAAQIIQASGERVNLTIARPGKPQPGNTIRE
# T3: PTPN13_1, Q12923
# T3 sequence (Q12923 1088-1188, limits assumed, looked up): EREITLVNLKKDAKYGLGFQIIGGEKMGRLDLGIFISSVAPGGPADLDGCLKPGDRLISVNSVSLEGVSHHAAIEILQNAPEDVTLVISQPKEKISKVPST
# T4: APBA3_1, O96018
# T4 sequence (O96018 389-490, limits assumed, looked up): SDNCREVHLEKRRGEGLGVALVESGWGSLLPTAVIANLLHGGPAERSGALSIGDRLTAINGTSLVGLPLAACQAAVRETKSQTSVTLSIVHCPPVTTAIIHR
# T5: APBA2_2, Q99767
# T5 sequence (Q99767 654-744, limits assumed, looked up): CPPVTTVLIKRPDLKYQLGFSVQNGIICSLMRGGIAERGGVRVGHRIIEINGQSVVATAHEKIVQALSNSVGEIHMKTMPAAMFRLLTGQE
# T6: MPDZ_12, O75970
# T6 sequence (O75970 1857-1958, limits assumed, looked up): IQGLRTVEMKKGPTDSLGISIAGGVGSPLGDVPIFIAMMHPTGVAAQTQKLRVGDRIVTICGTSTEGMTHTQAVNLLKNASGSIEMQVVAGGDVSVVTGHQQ
# T7: RAPGEF6, Q8TEU7
# T7 sequence (Q8TEU7 525-625, limits assumed, looked up): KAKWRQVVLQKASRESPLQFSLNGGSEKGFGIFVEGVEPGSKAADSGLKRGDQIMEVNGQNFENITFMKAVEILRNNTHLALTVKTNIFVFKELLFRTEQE
# T8: GRIP1_5, Q9Y3R0
# T8 sequence (Q9Y3R0 568-668, limits assumed, looked up): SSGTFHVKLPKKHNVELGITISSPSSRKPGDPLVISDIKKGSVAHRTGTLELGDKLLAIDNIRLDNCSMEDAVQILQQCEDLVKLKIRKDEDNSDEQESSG
# T9: PDZD7_3, Q9H5P4
# T9 sequence (Q9H5P4 857-944, limits assumed, looked up): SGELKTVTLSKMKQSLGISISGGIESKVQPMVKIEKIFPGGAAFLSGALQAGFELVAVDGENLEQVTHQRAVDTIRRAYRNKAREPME
# T10: NHERF3_4, Q5T2W1
# T10 sequence (Q5T2W1 373-468, limits assumed, looked up): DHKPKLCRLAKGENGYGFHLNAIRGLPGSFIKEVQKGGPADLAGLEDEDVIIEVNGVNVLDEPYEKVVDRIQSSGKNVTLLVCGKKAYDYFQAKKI
# T11: SHANK1, Q9Y566
# T11 sequence (Q9Y566 658-767, limits assumed, looked up): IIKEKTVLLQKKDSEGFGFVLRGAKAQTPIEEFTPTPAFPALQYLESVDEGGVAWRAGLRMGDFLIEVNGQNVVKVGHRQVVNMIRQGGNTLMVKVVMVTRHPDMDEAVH
# Biological target: MAGI2_5, Q86UL8
# Sequence (Q86UL8 915-1017): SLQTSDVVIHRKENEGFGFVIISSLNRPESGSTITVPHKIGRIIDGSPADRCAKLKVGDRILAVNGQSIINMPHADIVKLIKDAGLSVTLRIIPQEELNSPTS
# Test: holdup assay
# Design: key: below the threshold = too weak to quantify, mostly under pKd 3.1 to 4
# Details: plain residues with an end cap or a label only (N-terminal biotin on a linker: ado-ado)
row,Binder,pKd
1,"QSYPSKHDYV [CLDN18, P56856]",below the threshold

# Biological target: T1, HTRA4, P83105
# Test: holdup assay
# Design: key: below the threshold = too weak to quantify, mostly under pKd 3.1 to 4
# Details: plain residues with an end cap or a label only (N-terminal biotin on a linker: ado-ado)
row,Binder,pKd
1,"QSYPSKHDYV [CLDN18, P56856]",4.12

# Biological target: Inadl_9, Q8NI35
# Sequence (Q8NI35 1530-1615): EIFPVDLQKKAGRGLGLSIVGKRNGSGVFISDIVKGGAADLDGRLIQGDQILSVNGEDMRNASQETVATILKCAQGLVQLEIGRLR
# Test: holdup assay
# Design: key: below the threshold = too weak to quantify, mostly under pKd 3.1 to 4
# Details: plain residues with an end cap or a label only (N-terminal biotin on a linker: ado-ado)
row,Binder,pKd
1,"QSYPSKHDYV [CLDN18, P56856]",4.12

# Biological target: T2, LNX2_2, Q8N448
# Test: holdup assay
# Design: key: below the threshold = too weak to quantify, mostly under pKd 3.1 to 4
# Details: plain residues with an end cap or a label only (N-terminal biotin on a linker: ado-ado)
row,Binder,pKd
1,"QSYPSKHDYV [CLDN18, P56856]",4.17

# Biological target: PDZRN4_1, Q6ZMN7
# Sequence (Q6ZMN7 213-318): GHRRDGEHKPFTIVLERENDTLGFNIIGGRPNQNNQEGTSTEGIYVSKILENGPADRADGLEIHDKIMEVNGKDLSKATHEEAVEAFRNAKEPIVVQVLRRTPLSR
# Test: holdup assay
# Design: key: below the threshold = too weak to quantify, mostly under pKd 3.1 to 4
# Details: plain residues with an end cap or a label only (N-terminal biotin on a linker: ado-ado)
row,Binder,pKd
1,"QSYPSKHDYV [CLDN18, P56856]",below the threshold

# Biological target: Inadl_1, Q8NI35
# Sequence (Q8NI35 113-229): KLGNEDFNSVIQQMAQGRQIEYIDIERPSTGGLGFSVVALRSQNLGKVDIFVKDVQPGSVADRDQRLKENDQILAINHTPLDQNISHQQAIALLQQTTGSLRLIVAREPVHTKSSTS
# Test: holdup assay
# Design: key: below the threshold = too weak to quantify, mostly under pKd 3.1 to 4
# Details: plain residues with an end cap or a label only (N-terminal biotin on a linker: ado-ado)
row,Binder,pKd
1,"QSYPSKHDYV [CLDN18, P56856]",below the threshold

# Biological target: T3, PTPN13_1, Q12923
# Test: holdup assay
# Design: key: below the threshold = too weak to quantify, mostly under pKd 3.1 to 4
# Details: plain residues with an end cap or a label only (N-terminal biotin on a linker: ado-ado)
row,Binder,pKd
1,"QSYPSKHDYV [CLDN18, P56856]",below the threshold

# Biological target: LIMK2, P53671
# Sequence (P53671 143-248): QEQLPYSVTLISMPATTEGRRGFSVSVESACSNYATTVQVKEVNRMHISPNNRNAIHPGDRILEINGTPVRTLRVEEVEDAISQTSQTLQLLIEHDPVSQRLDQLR
# Test: holdup assay
# Design: key: below the threshold = too weak to quantify, mostly under pKd 3.1 to 4
# Details: plain residues with an end cap or a label only (N-terminal biotin on a linker: ado-ado)
row,Binder,pKd
1,"QSYPSKHDYV [CLDN18, P56856]",below the threshold

# Biological target: LNX1_2, Q8TBB1
# Sequence (Q8TBB1 371-470): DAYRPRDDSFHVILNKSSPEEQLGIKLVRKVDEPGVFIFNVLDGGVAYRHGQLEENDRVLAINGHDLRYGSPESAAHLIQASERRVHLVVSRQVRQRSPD
# Test: holdup assay
# Design: key: below the threshold = too weak to quantify, mostly under pKd 3.1 to 4
# Details: plain residues with an end cap or a label only (N-terminal biotin on a linker: ado-ado)
row,Binder,pKd
1,"QSYPSKHDYV [CLDN18, P56856]",3.69

# Biological target: PTPN3, P26045
# Sequence (P26045 505-587): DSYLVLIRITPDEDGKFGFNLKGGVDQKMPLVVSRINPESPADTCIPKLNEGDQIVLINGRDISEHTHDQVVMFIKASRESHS
# Test: holdup assay
# Design: key: below the threshold = too weak to quantify, mostly under pKd 3.1 to 4
# Details: plain residues with an end cap or a label only (N-terminal biotin on a linker: ado-ado)
row,Binder,pKd
1,"QSYPSKHDYV [CLDN18, P56856]",below the threshold

# Biological target: DLG4_2, P78352
# Sequence (P78352 155-259): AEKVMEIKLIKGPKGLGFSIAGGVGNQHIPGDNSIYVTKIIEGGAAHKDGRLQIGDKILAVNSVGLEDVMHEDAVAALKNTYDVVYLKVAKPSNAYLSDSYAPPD
# Test: holdup assay
# Design: key: below the threshold = too weak to quantify, mostly under pKd 3.1 to 4
# Details: plain residues with an end cap or a label only (N-terminal biotin on a linker: ado-ado)
row,Binder,pKd
1,"QSYPSKHDYV [CLDN18, P56856]",3.56

# Biological target: T4, APBA3_1, O96018
# Test: holdup assay
# Design: key: below the threshold = too weak to quantify, mostly under pKd 3.1 to 4
# Details: plain residues with an end cap or a label only (N-terminal biotin on a linker: ado-ado)
row,Binder,pKd
1,"QSYPSKHDYV [CLDN18, P56856]",below the threshold

# Biological target: T5, APBA2_2, Q99767
# Test: holdup assay
# Design: key: below the threshold = too weak to quantify, mostly under pKd 3.1 to 4
# Details: plain residues with an end cap or a label only (N-terminal biotin on a linker: ado-ado)
row,Binder,pKd
1,"QSYPSKHDYV [CLDN18, P56856]",3.62

# Biological target: T6, MPDZ_12, O75970
# Test: holdup assay
# Design: key: below the threshold = too weak to quantify, mostly under pKd 3.1 to 4
# Details: plain residues with an end cap or a label only (N-terminal biotin on a linker: ado-ado)
row,Binder,pKd
1,"QSYPSKHDYV [CLDN18, P56856]",below the threshold

# Biological target: T7, RAPGEF6, Q8TEU7
# Test: holdup assay
# Design: key: below the threshold = too weak to quantify, mostly under pKd 3.1 to 4
# Details: plain residues with an end cap or a label only (N-terminal biotin on a linker: ado-ado)
row,Binder,pKd
1,"QSYPSKHDYV [CLDN18, P56856]",below the threshold

# Biological target: DLG1_1, Q12959
# Test: holdup assay
# Design: key: below the threshold = too weak to quantify, mostly under pKd 3.1 to 4
# Details: plain residues with an end cap or a label only (N-terminal biotin on a linker: ado-ado)
row,Binder,pKd
1,"QSYPSKHDYV [CLDN18, P56856]",below the threshold

# Biological target: MAGI2_6, Q86UL8
# Sequence (Q86UL8 1141-1229): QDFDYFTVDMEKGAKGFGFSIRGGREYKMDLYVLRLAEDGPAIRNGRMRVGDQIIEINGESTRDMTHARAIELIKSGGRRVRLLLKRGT
# Test: holdup assay
# Design: key: below the threshold = too weak to quantify, mostly under pKd 3.1 to 4
# Details: plain residues with an end cap or a label only (N-terminal biotin on a linker: ado-ado)
row,Binder,pKd
1,"QSYPSKHDYV [CLDN18, P56856]",3.82

# Biological target: T8, GRIP1_5, Q9Y3R0
# Test: holdup assay
# Design: key: below the threshold = too weak to quantify, mostly under pKd 3.1 to 4
# Details: plain residues with an end cap or a label only (N-terminal biotin on a linker: ado-ado)
row,Binder,pKd
1,"QSYPSKHDYV [CLDN18, P56856]",below the threshold

# Biological target: LNX1_1, Q8TBB1
# Sequence (Q8TBB1 261-371): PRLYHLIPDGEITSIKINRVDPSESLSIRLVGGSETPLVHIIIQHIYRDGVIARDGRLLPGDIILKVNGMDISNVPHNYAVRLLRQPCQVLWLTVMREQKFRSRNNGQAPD
# Test: holdup assay
# Design: key: below the threshold = too weak to quantify, mostly under pKd 3.1 to 4
# Details: plain residues with an end cap or a label only (N-terminal biotin on a linker: ado-ado)
row,Binder,pKd
1,"QSYPSKHDYV [CLDN18, P56856]",3.73

# Biological target: DLG2_2, Q15700
# Sequence (Q15700 189-283): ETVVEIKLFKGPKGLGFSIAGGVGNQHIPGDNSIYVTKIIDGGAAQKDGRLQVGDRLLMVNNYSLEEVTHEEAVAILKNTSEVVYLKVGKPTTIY
# Test: holdup assay
# Design: key: below the threshold = too weak to quantify, mostly under pKd 3.1 to 4
# Details: plain residues with an end cap or a label only (N-terminal biotin on a linker: ado-ado)
row,Binder,pKd
1,"QSYPSKHDYV [CLDN18, P56856]",below the threshold

# Biological target: T9, PDZD7_3, Q9H5P4
# Test: holdup assay
# Design: key: below the threshold = too weak to quantify, mostly under pKd 3.1 to 4
# Details: plain residues with an end cap or a label only (N-terminal biotin on a linker: ado-ado)
row,Binder,pKd
1,"QSYPSKHDYV [CLDN18, P56856]",4.08

# Biological target: T10, NHERF3_4, Q5T2W1
# Test: holdup assay
# Design: key: below the threshold = too weak to quantify, mostly under pKd 3.1 to 4
# Details: plain residues with an end cap or a label only (N-terminal biotin on a linker: ado-ado)
row,Binder,pKd
1,"QSYPSKHDYV [CLDN18, P56856]",3.48

# Biological target: AHNAK1, Q09666
# Sequence (Q09666 4-100): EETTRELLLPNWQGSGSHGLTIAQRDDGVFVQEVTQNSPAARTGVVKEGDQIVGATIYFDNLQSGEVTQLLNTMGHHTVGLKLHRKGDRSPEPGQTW
# Test: holdup assay
# Design: key: below the threshold = too weak to quantify, mostly under pKd 3.1 to 4
# Details: plain residues with an end cap or a label only (N-terminal biotin on a linker: ado-ado)
row,Binder,pKd
1,"QSYPSKHDYV [CLDN18, P56856]",below the threshold

# Biological target: FRMPD4, Q14CM0
# Sequence (Q14CM0 67-160): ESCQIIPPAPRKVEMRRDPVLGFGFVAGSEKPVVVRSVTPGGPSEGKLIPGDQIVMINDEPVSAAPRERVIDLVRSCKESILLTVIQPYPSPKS
# Test: holdup assay
# Design: key: below the threshold = too weak to quantify, mostly under pKd 3.1 to 4
# Details: plain residues with an end cap or a label only (N-terminal biotin on a linker: ado-ado)
row,Binder,pKd
1,"QSYPSKHDYV [CLDN18, P56856]",3.57

# Biological target: T11, SHANK1, Q9Y566
# Test: holdup assay
# Design: key: below the threshold = too weak to quantify, mostly under pKd 3.1 to 4
# Details: plain residues with an end cap or a label only (N-terminal biotin on a linker: ado-ado)
row,Binder,pKd
1,"QSYPSKHDYV [CLDN18, P56856]",below the threshold

# Biological target: Inadl_3, Q8NI35
# Sequence (Q8NI35 359-469): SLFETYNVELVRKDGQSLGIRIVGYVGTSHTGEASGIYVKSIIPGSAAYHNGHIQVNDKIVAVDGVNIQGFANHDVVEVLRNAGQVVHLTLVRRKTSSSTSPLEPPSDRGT
# Test: holdup assay
# Design: key: below the threshold = too weak to quantify, mostly under pKd 3.1 to 4
# Details: plain residues with an end cap or a label only (N-terminal biotin on a linker: ado-ado)
row,Binder,pKd
1,"QSYPSKHDYV [CLDN18, P56856]",below the threshold

# Biological target: DLG4_3, P78352
# Sequence (P78352 306-403): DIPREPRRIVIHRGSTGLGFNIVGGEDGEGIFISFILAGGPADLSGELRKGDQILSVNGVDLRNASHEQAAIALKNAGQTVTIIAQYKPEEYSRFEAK
# Test: holdup assay
# Design: key: below the threshold = too weak to quantify, mostly under pKd 3.1 to 4
# Details: plain residues with an end cap or a label only (N-terminal biotin on a linker: ado-ado)
row,Binder,pKd
1,"QSYPSKHDYV [CLDN18, P56856]",below the threshold
